Data on 21 molecules can be found in patent US20250051463A1 (AstraZeneca / MedImmune, published 2025).

B1: HT12-GL-SG3932 (antibody, human IgG1, kappa, V domains shown)
VH: EVQLLESGGGLVQPGGSLRLSCAASGFTFNIYAMTWVRQAPGKGLEWVSGISAGGDSTYYADSVKGRFTISRDNSKNTLYLQMNSLRAEDTAVYYCAKDRGYYYGMDVWGQGTTVTVSS
VL: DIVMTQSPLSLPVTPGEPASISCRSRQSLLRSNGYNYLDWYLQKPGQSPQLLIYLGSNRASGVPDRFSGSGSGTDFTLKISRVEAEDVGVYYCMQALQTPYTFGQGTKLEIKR
modifications: SG3932 drug-linker on Cysteine 214 (EU numbering); SG3932 drug-linker (maleimide, succinimidyl thioether) on reduced cysteines; Cysteine 220, Cysteine 226 and Cysteine 229 (EU numbering) named as conjugation sites; DAR 8
notes: also called HT12-GL ADC; CD123 ADC
B2: HT38-GL (antibody, V domains shown)
VH: B1 VH with N30S, I31S, T35S, G50A, A53G, A61T, Y102F
VL: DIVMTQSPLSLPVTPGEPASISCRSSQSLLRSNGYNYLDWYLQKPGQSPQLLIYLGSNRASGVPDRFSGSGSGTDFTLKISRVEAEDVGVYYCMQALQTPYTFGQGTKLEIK
notes: member of m17
B3: HT38-GL-Q (antibody, V domains shown)
VH: B1 VH with N30S, I31S, T35S, G50A, A53G, A61T, Y102F
VL: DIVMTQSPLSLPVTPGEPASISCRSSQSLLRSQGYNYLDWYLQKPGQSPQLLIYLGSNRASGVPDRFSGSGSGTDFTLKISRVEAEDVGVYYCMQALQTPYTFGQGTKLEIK
notes: member of m17
B4: HT37-GL-L (antibody, V domains shown)
VH: B1 VH with N30S, G50A, S57N, Y60N, N77I
VL: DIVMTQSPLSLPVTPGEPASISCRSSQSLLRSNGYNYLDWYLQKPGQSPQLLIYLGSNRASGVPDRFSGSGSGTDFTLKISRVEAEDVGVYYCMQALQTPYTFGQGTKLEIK
notes: member of m17
B5: HT37-GL (antibody, V domains shown)
VH: B1 VH with N30S, G50A, S57N, Y60N
VL: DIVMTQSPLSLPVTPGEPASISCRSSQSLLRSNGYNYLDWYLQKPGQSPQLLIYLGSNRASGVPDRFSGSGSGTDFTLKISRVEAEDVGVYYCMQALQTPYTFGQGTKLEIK
notes: member of m17
B6: HT31-GL (antibody, V domains shown)
VH: B1 VH with N30S, T35S, G50A, A53G, Y102F
VL: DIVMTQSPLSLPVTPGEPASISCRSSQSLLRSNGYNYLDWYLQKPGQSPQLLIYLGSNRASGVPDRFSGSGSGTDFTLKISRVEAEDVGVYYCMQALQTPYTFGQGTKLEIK
notes: member of m17
B7: HT30-GL (antibody, V domains shown)
VH: B1 VH with N30S, T35S, G50A, S52T, S57T, D62V
VL: not shown
notes: member of m17
B8: HT35-GL (antibody, V domains shown)
VH: B1 VH with N30S, I31H, V48I, G50A, A53G
VL: not shown
notes: member of m17
B9: HT34-GL-L (antibody, V domains shown)
VH: B1 VH with N30S, I31H, G50A, A53G, S57T, N77T
VL: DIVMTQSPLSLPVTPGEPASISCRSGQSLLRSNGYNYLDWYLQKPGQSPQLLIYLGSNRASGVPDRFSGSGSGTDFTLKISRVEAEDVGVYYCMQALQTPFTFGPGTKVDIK
notes: member of m17
B10: HT33-GL (antibody, V domains shown)
VH: B1 VH with N30G, I31H, T35S, G50A, A53G, S57Y, F68L
VL: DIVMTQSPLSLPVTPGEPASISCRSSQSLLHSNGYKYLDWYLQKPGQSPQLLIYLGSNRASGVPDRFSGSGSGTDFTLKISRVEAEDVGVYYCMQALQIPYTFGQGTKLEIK
notes: member of m17
B11: HT6-GL (antibody, V domains shown)
VH: B1 VH with I31S, T35S, G50A, I51V, A53G, S57T, D62E, D107A
VL: DIVMTQSPLSLPVTPGEPASISCRSSQSLLRSNGYHYLDWYLQKPGQSPQLLIYLGSNRAPGVPDRFSGSGSGTDFTLKISRVEAEDVGVYYCMQALQTPYTFGQGTKLEIK
notes: member of m17
B12: HT8-GL (antibody, V domains shown)
VH: B1 VH with N30S, T35S, G50A, A53G, S57T, V64M
VL: not shown
notes: member of m17
B13: HT7-GL (antibody, V domains shown)
VH: B1 VH with N30S, I31H, T35S, G50A, A53G, S57R, Y59F, Y102F
VL: not shown
notes: member of m17
B14: HT4-GL (antibody, V domains shown)
VH: B1 VH with N30S, T35S, G50A, A53G, Y60N, D107V
VL: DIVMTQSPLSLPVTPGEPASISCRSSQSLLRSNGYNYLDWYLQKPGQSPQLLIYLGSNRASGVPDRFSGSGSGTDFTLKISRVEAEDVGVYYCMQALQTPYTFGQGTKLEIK
notes: member of m17
B15: HT32-GL (antibody, V domains shown)
VH: B1 VH with N30S, I31S, T35S, G50A, A53G, S57T, Y102F
VL: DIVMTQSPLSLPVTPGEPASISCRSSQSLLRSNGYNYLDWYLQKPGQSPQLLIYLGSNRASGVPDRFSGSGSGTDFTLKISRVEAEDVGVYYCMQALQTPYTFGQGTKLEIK
notes: member of m17
B16: HT14-GL (antibody, V domains shown)
VH: B1 VH with A53G, I70M
VL: B11 VL with R24K, S26R, H36N, P61S
notes: member of m17
B17: HT16-GL (antibody, V domains shown)
VH: B1 VH with N30S, I31N, G50A, A53G, S57T
VL: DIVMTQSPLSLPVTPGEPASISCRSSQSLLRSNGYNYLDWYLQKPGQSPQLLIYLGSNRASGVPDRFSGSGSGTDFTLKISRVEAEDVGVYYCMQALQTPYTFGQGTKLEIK
notes: member of m17
B18: HT36-GL (antibody, V domains shown)
VH: B1 VH with N30S, T35S, G50A, A53G, S57T, I70S, Y95F, Y102F
VL: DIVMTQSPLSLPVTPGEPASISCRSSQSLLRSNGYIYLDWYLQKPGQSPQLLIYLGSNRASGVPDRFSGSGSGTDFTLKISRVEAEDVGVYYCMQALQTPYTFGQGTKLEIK
notes: member of m17
B19: HT29-GL (antibody, V domains shown)
VH: B1 VH with T28A, N30S, I31H, T35S, G50A, A53G
VL: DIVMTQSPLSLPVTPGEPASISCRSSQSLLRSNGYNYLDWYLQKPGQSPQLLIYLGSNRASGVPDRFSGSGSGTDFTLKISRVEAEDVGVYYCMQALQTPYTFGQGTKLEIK
notes: member of m17
B20: HT10-GL (antibody, V domains shown)
VH: B1 VH with N30S, I31H, V48I, G50A, A53G, V108D
VL: not shown
notes: member of m17
B21: J13 antibody (antibody, V domains shown)
VH: EVQLVESGGGLVQPGGSLRLSCVVSGFTFSSYAMSWVRQAPGKGLEWVSAISGSGDSTYYADSVKGRFTFSRDNSKNTLYLQMNSLRAEDTAVYYCTKDRGFYYGMDVWGQGTMVTVSS
VL: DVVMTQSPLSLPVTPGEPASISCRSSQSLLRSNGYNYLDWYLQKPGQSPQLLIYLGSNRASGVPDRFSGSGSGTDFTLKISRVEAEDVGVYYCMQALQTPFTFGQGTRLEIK
notes: also called Antibody J13

Where a chain is given by its changes, count along the chain named.

The first assay deals with T1, human CD123 (IL3Rα) on cells (human, UniProt P26951 19-378).
T1 construct: whole, on cells; also called human IL3Rα expressed on 293 cells; AD293hIL3Rα
Nature of the assay: flow cytometry on THP-1 CD123 (no dox) cells, Geo MFI. The procedure:
(§1) THP-1 cells were transfected with an IL3Rα expression construct under the control of a doxycycline inducible promoter. THP-1 cells were maintained in DMEM containing 10% heat-inactivated fetal bovine serum (FBS) and were cultured in a humidified atmosphere of 5% CO₂ and at a temperature of 37° C. […] (Dox) inducible cells were stimulated with 1 μg/ml dox overnight before use. […] On the day of plating, cells were spun down at 1500 rpm for 3 minutes, counted, and resuspended to a final concentration of 1×10⁶ cells/ml. Two hundred μl of cells were plated in wells of 96 well microtiter plates. The plates were spun down at 1500 rpm for 3 minutes and flicked to remove media. One hundred μl of FACS buffer (PBS+2% FBS) was added to each well. […] The antibody concentration started at 12 μg/ml followed by six 1:3 dilutions (no antibody control was also run). The plates were incubated at 4° C. for 30 minutes. Following incubation, the plates were washed 3 times by spinning down at 1500 rpm for 3 minutes, flicked and 100 μl of FACs buffer was added. Alexa 647 secondary antibody (goat anti-human IgG (H+L)) was added at 1:1000 dilution in 100 μl followed by 30 minute 4° C. incubation. The plates were washed as above. […] Cells were analyzed on a BD Bioscience LSRII by collecting 10,000 cells. Flow data was analyzed in FlowJo software.
For the molecule B1, the concentration for a half-maximal effect (EC50 (read off the curve)) was around 0.1 µg/mL.

The target of another assay is T1, human CD123 (IL3Rα) on cells. Nature of the assay: flow cytometry on OCI-AML5 cells, geometric mean.
Regarding B2, the binding result is given as “binds”.
The same measure, in the same setting: in the case of B3 it was “binds”; in that of B4, “binds”.

For the next assay the target is unchanged. The experiment in a line: flow cytometry on Mv411 cells, geometric mean. In general terms: A flow cytometer gives signals particle by particle.
Turning to B5, the binding result is given as “binds”.

For the next assay the target is unchanged. Nature of the assay: flow cytometry on THP-1 CD123(+dox) cells, Geo MFI. The procedure:
as §1
Take B1: the “EC50 (read off the curve)” value was around 0.3 µg/mL.

The next assay shares this target. Nature of the assay: flow cytometry on Ad293 cells expressing human IL3Ra, geometric mean.
For the molecule B6, the binding result is “binds”.
Same read-out and setting: in the case of B7 it was “binds”; in that of B8, “binds”.
B9: the binding result is on record as “binds”.
With B10, the binding result is reported as “binds”.
On the same count and under the same terms, in the case of B11 it was “binds”.
Same read-out and setting: the same measure for B12: “binds”; for B13: “binds”; for B14: “binds”.
On the same count and under the same terms, the same measure for B15: “binds”; for B16: “binds”; for B17: “binds”.
Consider B18, for which the binding result was “binds”.
As to B19, the binding result is given as “binds”.
Still for that read-out and setting: in the case of B20 it was “binds”.

The target in a further assay is T2, human IL3Rα (CD123), sample in solution for biolayer interferometry (human, UniProt P26951 19-305, limits assumed).
T2 construct: Soluble analyte in the Octet assay; also called hIL3-Rα; hIL3Rα
T2 sequence (looked up): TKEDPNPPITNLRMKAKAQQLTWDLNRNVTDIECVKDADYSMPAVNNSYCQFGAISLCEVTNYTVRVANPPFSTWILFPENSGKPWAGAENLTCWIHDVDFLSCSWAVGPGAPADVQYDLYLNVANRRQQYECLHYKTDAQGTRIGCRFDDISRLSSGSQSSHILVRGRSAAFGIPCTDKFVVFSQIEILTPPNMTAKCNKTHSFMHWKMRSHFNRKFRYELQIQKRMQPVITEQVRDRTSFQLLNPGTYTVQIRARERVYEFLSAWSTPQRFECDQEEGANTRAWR
Nature of the assay: kinetic binding curves, antibody on the sensor, human CD123 in solution. Here is the method:
Biolayer interferometry binding experiments were performed using an Octet RED384 instrument, with all measurements made at 30° C. AHC biosensor probes were soaked in kinetics buffer (PBS pH 7.2+0.02% Tween-20, 0.1% BSA, 0.05% sodium azide) for 10 minutes, followed by baseline signal measurement in kinetics buffer for 60 seconds. […] For binding to hIL3-Rα, the antibody-loaded biosensor tips were dipped in binding buffer for 60 sec (baseline), followed by immersion in a solution containing dilutions of hIL3-Rα (10-0.16 μg/mL) for 300 sec (association), and subsequent immersion in kinetics buffer for 400 sec (dissociation). For binding to hIL5-Rα and GM-CSFRa, all steps were the same except the concentration of antigen was increased (50-1.56 μg/mL) and the dissociation step was decreased to 300 sec. The signal from a buffer only reference sample was subtracted, and all curves were fit with a 1:1 binding model to determine KD values.
Take B21: the binding result is recorded as “binds”.

In general, EC50 (read off the curve) refers to the concentration that produces a half-maximal response.
